How the values were obtained:
[1] = test system: HIV infection of T cells; conditions: cited from earlier work
[2] = at concentrations of 5 μM or less; cited from earlier work
[3] = test system: HR2 peptide (SEQ ID NO:33) derived from the HR2 region of HIV-1 gp41; test: HR2 peptide binding, fluorescence polarization assay; conditions: ability to complex with HR2 peptide denoted as yes
From the text: These include a protein chip assay (using Biacore analysis) in which surface plasmon resonance is used to detect the binding, and kinetics thereof, between a synthetic peptide and an HR2 peptide; and a fluorescence polarization assay. In the fluorescence polarization assay, a detectable moiety comprising a fluorescent dye (e.g., rhodamine and/or fluorescein) was used to label HR2 peptide, and the assay was then allowed to proceed under sufficient conditions and for a sufficient period of time for labeled peptide to bind to HR1 peptide, or synthetic peptide (or trimer formed therefrom).

[4] = Oligomerization state by sedimentation equilibrium (analytical ultracentrifuge); format: physicochemical; conditions: in solution, 4° C.
Procedure: Oligomerization state was assessed by using methods standard in the art for performing sedimentation equilibrium experiments and for analysis of the resultant data. In that regard, sedimentation equilibrium experiments were performed over a concentration range of synthetic peptide (1 μM to […]) as follows. Briefly, six-channel cells (12 mm optical path length) were used with an An-60 Ti rotor operated at 13,500 rpm, 18,000 rpm, 22,000 rpm, and 35,000 rpm) in an analytical ultracentrifuge at 4° C. The cell radii were scanned using 0.001 cm steps with 10 averages/scan at 3 different wavelengths (235 nm, 240 nm, 280 nm). Data obtained with solutions containing synthetic peptide was analyzed using a single species model to determine a weight-averaged molecular weight (MW). Diagnostic plots of MW/MW0 vs. rpm/rpm0 and MW vs. radial concentration were used to test for sample homogeneity. When systemic residuals or a MW higher than monomer molecular weight indicated the presence of self-association, associative models were investigated. The suitability of a model (goodness of fit) was judged by the trends observed in the residuals.

[5] = Helicity by circular dichroism; format: physicochemical; conditions: at 10 μM, 25° C.
Procedure: (§1) Helicity was assessed by circular dichroism (“CD”) as follows. Briefly, CD spectra were obtained using a spectrometer equipped with a thermoelectric temperature controller. The spectra was obtained at 25° C. with 0.5 nanometer (nm) steps from 200 to 260 nm, with a 1.5 nm bandwith, and a typical averaging time of 4 seconds/step. After the cell/buffer blank was subtracted, spectra were smoothed using a third-order least-squares polynomial fit with a conservative window size to give random residuals. Raw ellipticity values were converted to mean residue ellipticity using standard methods, and plotted was the wavelength (from 200 to 260 nm) versus [θ]×10^−3 (degrees cm^2/dmol). Percent helicity values were then calculated using standard methods. Assessment of thermal stability was performed by monitoring the change in CD signal at 222 nm as temperature was raised in 2° C. steps, with 1 minute equilibration times. The thermal stability for each sample (e.g., synthetic peptide) was represented by the transition temperature (Tm) determined by the derivative method.

[6] = Thermal stability (Tm) by CD signal at 222 nm; format: physicochemical; conditions: at 10 μM
Procedure: as §1

[7] = test system: HIV IIIB; format: cell-based, HIV-1; conditions: for Antiviral activity against HIV IIIB IC50: 50% reduction in infectious virus titer; for Antiviral activity against HIV IIIB IC90: 90% reduction in infectious titer
[8] = molecular target: HR2 peptide having the amino acid sequence of SEQ ID NO:33 (HIV-1); test: surface plasmon resonance (Biacore protein chip assay)

| Molecule | 50% effective concentration (EC50), blocked infection of T cells [1] [µg/mL] | Oligomerization state in solution [2] | HR2 peptide binding [3] | Oligomerization [4] | Helicity [5] [%] | Stability Tm [6] [°C] | Antiviral activity against HIV IIIB IC50 [7] [µg/mL] | Antiviral activity against HIV IIIB IC90 [7] [µg/mL] | Kd [8] [nM] |
| --- | --- | --- | --- | --- | --- | --- | --- | --- | --- |
| DP107: HR1 peptide, also known as T-21, a synthetic peptide having the amino acid sequence of SEQ ID NO:2 (NNLLRAIEAQQHLLQLTVWGIKQLQARILAVERYLKDQ) | 1 | monomer/dimer/tetramer equilibrium |  |  |  |  |  |  |  |
| SEQ ID NO: 38: Same as SEQ ID NO:32 except substitutions at 27, 34, 41, 48 and 23, 30, 44; Asp and Gln added to C-terminus (QARQLLSGIVQQQNNLLRAIEATQHAVQALVWGVKQLQARVLALERYIKDQ) |  |  | Yes | Trimer* | 79 | 90 | 0.18 | 0.88 |  |
| SEQ ID NO: 39: Same as SEQ ID NO:32 except substitutions at 6, 20, 41, 48 and 9, 16, 44; Asp and Gln added to C-terminus (QARQLVSGLVQQQNNILRALEAQQHALQATVWGIKQLQARVLALERYIKDQ) |  |  | Yes | Trimer* | 63 | 68 | 0.26 | 1.20 |  |
| QARQLVSGLVQQQNNILRALEATQHAVQALVWGVKQLQARVLALERYIK (modifications not checked) [synthetic peptide having the amino acid sequence of SEQ ID NO:35] |  |  |  |  |  |  |  |  | 21.8 |

Source: patent publication US20040076637A1, “HIV-derived HR1 peptides modified to form stable trimers, and their use in therapy to inhibit transmission of human immunodeficiency virus” (priority 2002, published 2004)
